1 molecule from patent US20230167169A1 (ATRECA, published 2023) can be followed below.

The experiment has as its target T1, (NANP)6 (Plasmodium falciparum, biotinylated for the BLI assay (site not stated)).
T1 construct: Used in both the BLI and SPR assays
T1 peptide: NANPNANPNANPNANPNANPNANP
The experiment is described as follows: BLI; biotinylated target on streptavidin sensor; antibody at 5 µg/mL.

B1: AB-000224 (antibody, V domains shown)
VH: EVQLVESGGGLVQPGRSLRLPCTASGFSFGDHAMSWVRQAPGKGLEWVGFIRKTTYGATTHYAAAVRGRFTISRDDSKSIVYLQMNSLKTEDTAVYFCTRVQLDYGPGYQYYGMDVWGQGTTVTVSS
VL: ESVLTQPPSVSGAPGQRVTISCTGMNSNIGAGYDVYWYQQLPGRAPKLLIYGNSNRPSGVPDRFSGSRSGTSASLAITGLQAEDEADYYCQSYDTSLNGWAFGGGTKLTVLG
B1 showed an on-rate (kon) of 275000 M⁻¹ s⁻¹.
